The target in test [1] is ErbB2 CCH-10 (UniProt P04626). Kind of test: bipartite tetracysteine display.
The target in test [2] is ErbB2 V635G CCH-10 (UniProt P04626). Kind of test: bipartite tetracysteine display.

Turning to “ErbB2 CCH-10 (from UniProt P04626 23-1255) (receptor)”, the fold increase in ReAsH fluorescence (no growth factor) in test [1] was found to be 1.8 fold. Consider “ErbB2 V635G CCH-10 (from UniProt P04626 23-1255) (receptor)”, for which the fold increase in ReAsH fluorescence (no growth factor) in test [2] is 1.7 fold.

The values above are taken from paper PMC6054568.
